Experimental data taken from patent US20220135701A1 (Genentech, published 2022).
Like-named read-outs stand apart in the source and are kept apart here.

B1: h9E3.FN.v1 (antibody, V domains shown)
VH: EQQLVESGGGLIQPGGSLRLSCAVSGFSLSSNAMSWVRQAPGKGLEWIGIISSSGSTYSASWAKGRFTISKDSSKNTMYLQMNSLRAEDTAVYFCARVGFFVGYGAYDYGIIHRLDLWGQGTLVTVSS
VL: DAQLTQSPSTLSASVGDRVTITCQSSKSIYNNNWLSWYQQKPGKPPKLLIYDASDLASGVPSRFSGSGSGTEFTLTISSLQPDDFATYYCAGGYSGDSDYAFGGGTKVEIK
notes: also called h9E3.FN.V1 (Parent); 9E3.FN Humanized mAb V1
B2: h9E3.FN.v16 (antibody, V domains shown)
VH: EVQLVESGGGLIQPGGSLRLSCAASGFSLSSNAMSWVRQAPGKGLEWVSIISSSGSTYSASWAKGRFTISKDNSKNTLYLQMNSLRAEDTAVYYCARVGFFVGYGAYDYGIIHRLDLWGQGTLVTVSS
VL: DIQLTQSPSTLSASVGDRVTITCQSSKSIYNNNWLSWYQQKPGKPPKLLIYDASDLASGVPSRFSGSGSGTEFTLTISSLQPDDFATYYCAGGYSGDSDYAFGGGTKVEIK
notes: Humanized, human IgG1; also called 9E3.FN Humanized polished mAb
B3: h10F7.v1 (antibody, V domains shown)
VH: EQQLVESGGGLVQPGGSLRLSCAVSGFSLSGYAMSWVRQAPGKGLEYIGVISSSGSSYYPSWAKGRFTISKDSSKNTVYLQMGSLRAEDMAVYFCARVQFYVGYAVYGYGIIDRLDLWGQGTLVTVSS
VL: DAVLTQSPDSLAVSLGERATINCQSSKSVYNNNWLSWYQQKPGQPPKLLIYRASTLESGVPDRFSGSGSGTDFTLTISSLQAEDVAVYFCAGGYSSSSSANAFGGGTKVEIK
notes: also called h10F7.V1 (Parent); 10F7 Humanized mAb V1

Assays:
human MerTK [1] = biological target: T1, human MerTK (human, UniProt Q12866 26-499); assay: SPR BIAcore T200, Ab captured, 37C
T1 construct: also called HuMER
T1 sequence: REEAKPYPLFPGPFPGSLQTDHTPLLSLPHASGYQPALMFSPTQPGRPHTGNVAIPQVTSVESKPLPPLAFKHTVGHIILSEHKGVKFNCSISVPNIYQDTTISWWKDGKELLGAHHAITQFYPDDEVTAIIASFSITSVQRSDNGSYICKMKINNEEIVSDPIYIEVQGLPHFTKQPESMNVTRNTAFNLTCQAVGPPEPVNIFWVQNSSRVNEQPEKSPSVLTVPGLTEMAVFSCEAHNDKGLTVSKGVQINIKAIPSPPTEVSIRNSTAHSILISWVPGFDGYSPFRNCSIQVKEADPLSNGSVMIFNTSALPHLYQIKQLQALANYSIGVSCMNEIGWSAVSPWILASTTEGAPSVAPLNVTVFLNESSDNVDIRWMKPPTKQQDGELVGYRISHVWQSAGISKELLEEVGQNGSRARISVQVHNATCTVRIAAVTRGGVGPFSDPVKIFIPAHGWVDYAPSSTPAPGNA
Experimental: Each humanized mutation variant was subject to BIAcore analysis to determine the important rabbit residues for binding and stability. Binding affinity determinations were obtained using Surface Plasmon Resonance (SRP) measurements from a BIAcore™-T200 instrument. Briefly, each humanized mutation variant antibody was captured to achieve approximately 100 RU (Response Units). Then, 3-fold serial dilutions of human MerTK (0.4 nM to 100 nM) diluted in HBS-EP buffer (0.01M HEPES pH 7.4, 0.15M NaCl, 3 mM EDTA and 0.05% v/v surfactant P20) was injected into the BIAcore™-T200 instrument at 37° C. with a flow rate of 30 μl/min. Association rates (kₒₙ) and dissociation rates (koff) were calculated using a simple one-to-one Langmuir binding model (BIAcore T200 evaluation software version 2.0). The equilibrium dissociation constant (KD) was calculated as the ratio koff/kₒₙ.

human MerTK [2] = biological target: T1, human MerTK; assay: SPR BIAcore T200, Ab captured, 37C; remark: listed apart in the source
Experimental: (§1) All binding affinity determinations were obtained using Surface Plasmon Resonance (SPR) measurements from a BIAcore™-T200 instrument. Briefly, each rabbit or humanized antibody was captured to achieve approximately 100 RU (Response Units). Then, 3-fold serial dilutions of MerTK from various species (0.4 nM to 100 nM) diluted in HBS-EP buffer (0.01M HEPES pH 7.4, 0.15M NaCl, 3 mM EDTA and 0.05% v/v surfactant P20) was injected into the BIAcore™-T200 instrument at 25° C. or 37° C. with a flow rate of 30 μl/min. Association rates (kₒₙ) and dissociation rates (koff) were calculated using a simple one-to-one Langmuir binding model (BIAcore T200 evaluation software version 2.0). The equilibrium dissociation constant (KD) was calculated as the ratio koff/kₒₙ.

cynomolgus monkey MerTK [3] = biological target: T2, cynomolgus monkey MerTK (cynomolgus monkey, UniProt A0A2K5V1H9 32-505); assay: SPR BIAcore T200, Ab captured, 37C
T2 construct: Soluble analyte in SPR; also called Cyno MerTK
T2 sequence: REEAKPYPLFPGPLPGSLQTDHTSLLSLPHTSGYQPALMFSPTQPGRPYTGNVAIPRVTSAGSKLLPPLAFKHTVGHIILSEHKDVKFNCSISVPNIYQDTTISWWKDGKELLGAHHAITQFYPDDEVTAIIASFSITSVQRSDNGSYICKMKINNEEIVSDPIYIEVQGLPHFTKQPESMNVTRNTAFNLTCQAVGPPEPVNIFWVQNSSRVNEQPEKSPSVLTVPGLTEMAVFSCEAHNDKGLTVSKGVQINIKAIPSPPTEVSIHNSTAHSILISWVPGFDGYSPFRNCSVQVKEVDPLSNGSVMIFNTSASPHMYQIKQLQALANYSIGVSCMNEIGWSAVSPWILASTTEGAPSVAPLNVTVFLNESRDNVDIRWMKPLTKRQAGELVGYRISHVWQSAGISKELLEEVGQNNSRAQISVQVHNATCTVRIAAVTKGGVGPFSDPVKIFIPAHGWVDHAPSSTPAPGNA
Experimental: as §1

rat MerTK [4] = biological target: T3, rat MerTK (rat, UniProt P57097 23-496, limits assumed); assay: SPR BIAcore T200, Ab captured, 37C
T3 construct: Soluble analyte in SPR
T3 sequence (looked up): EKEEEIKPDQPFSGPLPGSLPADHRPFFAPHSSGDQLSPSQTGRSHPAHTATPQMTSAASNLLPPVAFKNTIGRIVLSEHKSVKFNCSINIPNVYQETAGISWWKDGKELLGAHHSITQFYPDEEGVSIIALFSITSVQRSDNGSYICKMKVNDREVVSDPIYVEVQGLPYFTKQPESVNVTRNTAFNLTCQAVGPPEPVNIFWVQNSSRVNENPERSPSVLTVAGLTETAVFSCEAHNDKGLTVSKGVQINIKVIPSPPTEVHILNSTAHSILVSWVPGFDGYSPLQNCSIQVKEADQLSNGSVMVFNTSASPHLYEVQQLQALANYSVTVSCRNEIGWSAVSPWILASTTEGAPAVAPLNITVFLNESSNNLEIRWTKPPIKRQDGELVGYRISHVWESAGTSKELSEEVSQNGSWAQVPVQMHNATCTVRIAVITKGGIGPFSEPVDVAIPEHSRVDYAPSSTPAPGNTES
Experimental: as §1

mouse MerTK [5] = biological target: T4, mouse MerTK (mouse, UniProt Q60805 23-496); assay: SPR BIAcore T200, Ab captured, 37C
T4 construct: also called MuMER
T4 sequence (looked up): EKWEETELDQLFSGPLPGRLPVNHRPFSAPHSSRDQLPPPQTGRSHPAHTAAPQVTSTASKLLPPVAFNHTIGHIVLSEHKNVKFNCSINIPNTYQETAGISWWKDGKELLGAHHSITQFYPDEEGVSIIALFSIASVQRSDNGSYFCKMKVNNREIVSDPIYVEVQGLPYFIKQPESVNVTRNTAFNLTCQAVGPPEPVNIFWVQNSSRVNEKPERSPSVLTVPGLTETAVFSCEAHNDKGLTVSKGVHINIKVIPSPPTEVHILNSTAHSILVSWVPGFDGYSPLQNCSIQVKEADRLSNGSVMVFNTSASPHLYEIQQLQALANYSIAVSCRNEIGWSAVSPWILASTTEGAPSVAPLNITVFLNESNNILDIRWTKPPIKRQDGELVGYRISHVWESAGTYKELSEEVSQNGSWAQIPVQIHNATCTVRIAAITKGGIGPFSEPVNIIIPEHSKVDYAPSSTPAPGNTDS
Experimental: as §1

human MerTK [6] = biological target: T1, human MerTK; assay: SPR BIAcore T200, Ab captured, 37C; remark: listed apart in the source
Experimental: (§2) Each rabbit and humanized antibody was subjected to a binding assay to determine its affinity to MerTK derived from various species.
as §1

cynomolgus monkey MerTK [7] = biological target: T2, cynomolgus monkey MerTK; assay: SPR BIAcore T200, Ab captured, 37C; remark: listed apart in the source
Experimental: as §2, §1

rat MerTK [8] = biological target: T3, rat MerTK; assay: SPR BIAcore T200, Ab captured, 37C; remark: listed apart in the source
Experimental: as §2, §1

mouse MerTK [9] = biological target: T4, mouse MerTK; assay: SPR BIAcore T200, Ab captured, 37C; remark: listed apart in the source
Experimental: as §2, §1

[10] = biological target: T5, human MerTK on human macrophages (human, UniProt Q12866 21-999); assay: cell-based or functional assay
T5 sequence: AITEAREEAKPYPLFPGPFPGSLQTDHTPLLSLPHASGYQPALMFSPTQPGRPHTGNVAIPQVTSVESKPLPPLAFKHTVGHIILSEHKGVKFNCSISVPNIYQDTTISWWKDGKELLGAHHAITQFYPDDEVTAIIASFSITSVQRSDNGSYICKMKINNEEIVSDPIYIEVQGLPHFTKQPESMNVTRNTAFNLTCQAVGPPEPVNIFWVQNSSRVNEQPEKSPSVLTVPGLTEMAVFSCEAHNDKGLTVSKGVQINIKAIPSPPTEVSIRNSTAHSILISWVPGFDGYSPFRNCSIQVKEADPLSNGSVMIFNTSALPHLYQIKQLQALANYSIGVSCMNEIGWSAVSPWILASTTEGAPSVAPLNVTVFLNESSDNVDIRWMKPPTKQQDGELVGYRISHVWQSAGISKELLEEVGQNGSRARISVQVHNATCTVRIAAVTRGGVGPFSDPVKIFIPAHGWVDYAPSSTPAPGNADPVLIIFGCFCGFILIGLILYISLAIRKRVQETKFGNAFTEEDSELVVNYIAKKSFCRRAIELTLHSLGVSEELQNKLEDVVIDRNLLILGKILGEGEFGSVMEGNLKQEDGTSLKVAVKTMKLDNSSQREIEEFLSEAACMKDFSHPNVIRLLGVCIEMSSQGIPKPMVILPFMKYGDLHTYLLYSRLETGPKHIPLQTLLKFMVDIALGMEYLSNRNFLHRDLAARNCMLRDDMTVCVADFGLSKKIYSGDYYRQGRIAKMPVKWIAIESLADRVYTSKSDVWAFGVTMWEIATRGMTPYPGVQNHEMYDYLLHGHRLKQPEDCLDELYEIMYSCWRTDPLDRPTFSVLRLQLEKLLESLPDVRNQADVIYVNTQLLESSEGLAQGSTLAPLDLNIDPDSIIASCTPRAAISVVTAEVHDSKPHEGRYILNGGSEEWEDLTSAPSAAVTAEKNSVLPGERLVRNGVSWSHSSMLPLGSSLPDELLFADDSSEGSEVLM

Binder | Kd (human MerTK [1]) [nM] | Kd (human MerTK [2]) [nM] | Kd (cynomolgus monkey MerTK [3]) [nM] | Kd (rat MerTK [4]) [nM] | Kd (mouse MerTK [5]) [nM] | Kd (human MerTK [6]) [nM] | Kd (cynomolgus monkey MerTK [7]) [nM] | Kd (rat MerTK [8]) [nM] | Kd (mouse MerTK [9]) [nM] | IC50 (nM), efferocytosis by human macrophages, Average (3 Donors) [10] [nM] | IC50 (nM), efferocytosis by human macrophages, Donor A [10] [nM] | IC50 (nM), efferocytosis by human macrophages, Donor C [10] [nM] | Max Inhibition (%), efferocytosis by human macrophages, Average (3 Donors) [10] [%] | Max Inhibition (%), efferocytosis by human macrophages, Donor A [10] [%] | Max Inhibition (%), efferocytosis by human macrophages, Donor C [10] [%]
B1 | 12.2 | 10.6 | 4.5 | 3.7 | 1.5 | 11.2 | 4.8 | 3.8 | 1.4 | – | – | – | – | – | –
B2 | – | – | – | – | – | 5.8 | 2.5 | 3 | 1.1 | 1.02 | 0.59 | 1.5 | 57 | 58 | 55
B3 | 7.3 | 7.1 | 3.1 | 3.6 | 1.5 | 6.7 | 3 | 4.1 | 1.5 | – | – | – | – | – | –
